Assay results from patent US20240216513A1, “FATTY ACID-BIFUNCTIONAL DEGRADER CONJUGATES AND THEIR METHODS OF USE” (Novartis AG, priority 2021, published 2024).

Experiments:
[1] = BTK FAC plasma stability assay, mouse plasma; type: in vitro ADME
Description: (§1) Plasma stability was conducted in Dulbecco's PBS buffer, mouse plasma, rat plasma or human plasma frozen with K3-EDTA from BiolVT). Thawed plasma was centrifuged prior to warming for 5 minutes at 37° C. Working solutions were prepared from 10 mM DMSO solution to 500 µM in acetonitrile:water (1:1); 2 µL of working solution was added to 198 µL blank plasma or PBS and mixed manually. 4×45 µL of spiked matrix was aliquoted into glass incubation plates (96-well DW glass microplate) and sealed with blue silicon/PTFE seal; then incubated on a Thermo shaker (38° C. 300 RPM). Samples were prepared at 0, 2, 6 and 24 h timepoints, by protein precipitation with chilled acetonitrile containing internal standard Glyburide (0.2 µM). Precipitated samples were shaken for 10 minutes and stored at 4° C. until completion of the study. Following precipitation of the terminal sample, samples were frozen at −80° C. for 1 hour. Samples were then thawed prior to centrifugation (20 minutes, 4500 RPM at 4° C.). 50 µL of supernatant of each sample was transferred to 384 well analysis plate containing 30 µL of water. Semi quantitative analysis (analyte: internal standard peak area ratio) was performed by LC-MS/MS using a Sciex QTrap 5500.

[2] = BTK FAC plasma stability assay, rat plasma; type: in vitro ADME
Description: as §1

[3] = BTK FAC plasma stability assay, PBS buffer arm; type: physicochemical; conditions: for Plasma stability (h) PBS: incubation to 24 h
Description: as §1

[4] = BTK FAC plasma stability assay, dog plasma; type: in vitro ADME
[5] = BTK FAC plasma stability assay, cyno plasma; type: in vitro ADME, cynomolgus monkey

SMILES | % Release of degrader after 24 h mouse [1] | Plasma stability (h) mouse ([1]; incubation to 24 h) | % Release of degrader after 24 h rat [2] | Plasma stability (h) rat ([2]; incubation to 24 h) | % Release of degrader after 24 h PBS [3] | Plasma stability (h) PBS [3] | Plasma stability (h) dog [4] | % Release of degrader after 24 h dog [4] | Plasma stability (h) cyno [5] | % Release of degrader after 24 h cyno [5] | half-life at 5 µM ([1]; incubation to 24 h) | half-life at 5 µM ([2]; incubation to 24 h) | half-life at 5 µM ([4]; read-out: Plasma stability (h) dog (converted))
CCCCCCCCCCCN(C(=O)CCCCCCCCCC(=O)O)C(CCC(=O)NCCOCCOCCOCCOCCOCCOCCOCCOCCOCCOCCOCCOCCC(=O)NCCC(=O)OC(C)(C)c1ccc(C(=O)Nc2cc(F)cc(-c3ncnc4[nH]c(-c5ccc(CCN6CCC7(CC6)CCN(C(=O)c6ccc(OC)c(N8CCC(=O)NC8=O)c6)CC7)cc5)cc34)c2C)c(F)c1)C(=O)O (stereo not drawn) [Example A12, 51-Carboxy-2-(4-((3-(6-(4-(2-(9-(3-(2,4-dioxotetrahydropyrimidin-1(2H)-yl)-4-methoxybenzoyl)-3,9-diazaspiro[5.5]undecan-3-yl)ethyl)phenyl)-7H-pyrrolo[2,3-d]pyrimidin-4-yl)-5-fluoro-2-methylphenyl)carbamoyl)-3-fluorophenyl)-2-methyl-4,8,48,53-tetraoxo-52-undecyl-3,11,14,17,20,23,26,29,32,35,38,41,44-tridecaoxa-7,47,52-triazatrihexacontan-63-oic acid] | 14.2% | 27.3 h | 2% | >49 h | 0.3% | >48 h | >48 h | 1.2% | 44.9 h | 0.5% |  |  | 
CCCCCCCCCCCN(C(=O)CCCCCCCCCC(=O)O)[C@@H](CCC(=O)NCCOCCOCCOCCOCCOCCOCCOCCOCCOCCOCCOCCOCCC(=O)NCCCC(=O)OC(C)(C)c1ccc(C(=O)Nc2cc(F)cc(-c3ncnc4[nH]c(-c5ccc(CCN6CCC7(CC6)CCN(C(=O)c6ccc(OC)c(N8CCC(=O)NC8=O)c6)CC7)cc5)cc34)c2C)c(F)c1)C(=O)O [Example A27, (S)-52-Carboxy-2-(4-((3-(6-(4-(2-(9-(3-(2,4-dioxotetrahydropyrimidin-1(2H)-yl)-4-methoxybenzoyl)-3,9-diazaspiro[5.5]undecan-3-yl)ethyl)phenyl)-7H-pyrrolo[2,3-d]pyrimidin-4-yl)-5-fluoro-2-methylphenyl)carbamoyl)-3-fluorophenyl)-2-methyl-4,9,49,54-tetraoxo-53-undecyl-3,12,15,18,21,24,27,30,33,36,39,42,45-tridecaoxa-8,48,53-triazatetrahexacontan-64-oic acid] | 13.7% | 28.6 h | 2% |  | 0.3% | >48 h | >48 h | 0.5% | 26.6 h | 0.4% |  |  | 
COCCOCCOCCOCCOCCOCCOCCOCCOCCOCCOCCOCCC(=O)NCC(=O)OC(C)(C)c1ccc(C(=O)Nc2cc(F)cc(-c3ncnc4[nH]c(-c5ccc(CCN6CCC7(CC6)CCN(C(=O)c6ccc(OC)c(N8CCC(=O)NC8=O)c6)CC7)cc5)cc34)c2C)c(F)c1 [Example A34, 2-(4-((3-(6-(4-(2-(9-(3-(2,4-Dioxotetrahydropyrimidin-1(2H)-yl)-4-methoxybenzoyl)-3,9-diazaspiro[5.5]undecan-3-yl)ethyl)phenyl)-7H-pyrrolo[2,3-d]pyrimidin-4-yl)-5-fluoro-2-methylphenyl)carbamoyl)-3-fluorophenyl)propan-2-yl (2,5,8,11,14,17,20,23,26,29,32,35-dodecaoxaoctatriacontan-38-oyl)glycinate] | 26.2% | 6.8 h | 42.2% | 5.3 h | 5.2% | >48 h | >48 h | 5.3% | 30.6 h | 13.9% |  |  | 
CCCCCCCCCCCN(C(=O)CCCCCCCCCC(=O)O)C(CCC(=O)NCCOCCOCCOCCOCCOCCOCCOCCOCCOCCOCCOCCOCCC(=O)N1CCN(CC(=O)OC(C)(C)c2ccc(C(=O)Nc3cc(F)cc(-c4ncnc5[nH]c(-c6ccc(CCN7CCC8(CC7)CCN(C(=O)c7ccc(OC)c(N9CCC(=O)NC9=O)c7)CC8)cc6)cc45)c3C)c(F)c2)CC1)C(=O)O (stereo not drawn) [Example A22, 44-Carboxy-1-(4-(2-((2-(4-((3-(6-(4-(2-(9-(3-(2,4-dioxotetrahydropyrimidin-1(2H)-yl)-4-methoxybenzoyl)-3,9-diazaspiro[5.5]undecan-3-yl)ethyl)phenyl)-7H-pyrrolo[2,3-d]pyrimidin-4-yl)-5-fluoro-2-methylphenyl)carbamoyl)-3-fluorophenyl)propan-2-yl)oxy)-2-oxoethyl)piperazin-1-yl)-1,41,46-trioxo-45-undecyl-4,7,10,13,16,19,22,25,28,31,34,37-dodecaoxa-40,45-diazahexapentacontan-56-oic acid] | 2.3% | >48 h | 1.4% | >48 h | 1.3% | >48 h | >48 h | 1.6% | >48 h | 1.2% |  |  | 
CCCCCCCCCCCN(C(=O)CCCCCCCCCC(=O)O)C(CCC(=O)NCCOCCOCCOCCOCCOCCOCCOCCOCCOCCOCCOCCOCCOCCOCCOCCOCCOCCOCCOCCOCCOCCOCCOCCOCCC(=O)NCC(=O)OC(C)(C)c1ccc(C(=O)Nc2cc(F)cc(-c3ncnc4[nH]c(-c5ccc(CCN6CCC7(CC6)CCN(C(=O)c6ccc(OC)c(N8CCC(=O)NC8=O)c6)CC7)cc5)cc34)c2C)c(F)c1)C(=O)O (stereo not drawn) [Example A32, 86-Carboxy-2-(4-((3-(6-(4-(2-(9-(3-(2,4-dioxotetrahydropyrimidin-1(2H)-yl)-4-methoxybenzoyl)-3,9-diazaspiro[5.5]undecan-3-yl)ethyl)phenyl)-7H-pyrrolo[2,3-d]pyrimidin-4-yl)-5-fluoro-2-methylphenyl)carbamoyl)-3-fluorophenyl)-2-methyl-4,7,83,88-tetraoxo-87-undecyl-3,10,13,16,19,22,25,28,31,34,37,40,43,46,49,52,55,58,61,64,67,70,73,76,79-pentacosaoxa-6,82,87-triazaoctanonacontan-98-oic acid] | 5.8% | 27 h | 6.1% | 20.8 h | 1% | >48 h | 37.3 h | 4.7% |  |  |  |  | 
CCCCCCCCCCCN(C(=O)CCCCCCCCCC(=O)O)[C@@H](CCC(=O)NCC(=O)OC(C)(C)c1ccc(C(=O)Nc2cc(F)cc(-c3ncnc4[nH]c(-c5ccc(CCN6CCC7(CC6)CCN(C(=O)c6ccc(OC)c(N8CCC(=O)NC8=O)c6)CC7)cc5)cc34)c2C)c(F)c1)C(=O)O [Example A6, (S)-11-((1-Carboxy-4-((2-((2-(4-((3-(6-(4-(2-(9-(3-(2,4-dioxotetrahydropyrimidin-1(2H)-yl)-4-methoxybenzoyl)-3,9-diazaspiro[5.5]undecan-3-yl)ethyl)phenyl)-7H-pyrrolo[2,3-d]pyrimidin-4-yl)-5-fluoro-2-methylphenyl)carbamoyl)-3-fluorophenyl)propan-2-yl)oxy)-2-oxoethyl)amino)-4-oxobutyl)(undecyl)amino)-11-oxoundecanoic acid] | 37.4% |  | 21.1% |  | 0.4% | >48 h |  | 4.6% |  |  | 10.7 h | 36.6 h | 12.7 h
CCCCCCCCCCCN(C(=O)CCCCCCCCCC(=O)O)[C@H](CCC(=O)NCCOCCOCCOCCOCCOCCOCCOCCOCCOCCOCCOCCOCCC(=O)NCC(=O)OC(C)(C)c1ccc(C(=O)Nc2cc(F)cc(-c3ncnc4[nH]c(-c5ccc(CCN6CCC7(CC6)CCN(C(=O)c6ccc(OC)c(N8CCC(=O)NC8=O)c6)CC7)cc5)cc34)c2C)c(F)c1)C(=O)O [Example A3, (R)-50-Carboxy-2-(4-((3-(6-(4-(2-(9-(3-(2,4-dioxotetrahydropyrimidin-1(2H)-yl)-4-methoxybenzoyl)-3,9-diazaspiro[5.5]undecan-3-yl)ethyl)phenyl)-7H-pyrrolo[2,3-d]pyrimidin-4-yl)-5-fluoro-2-methylphenyl)carbamoyl)-3-fluorophenyl)-2-methyl-4,7,47,52-tetraoxo-51-undecyl-3,10,13,16,19,22,25,28,31,34,37,40,43-tridecaoxa-6,46,51-triazadohexacontan-62-oic acid] | 5.2% | >48 h | 9% | >48 h | 1.9% | >48 h | 44.4 h | 9.7% |  |  |  |  | 
